2 proteins from article PMC5119558, “Applying bimolecular fluorescence complementation to screen and purify aquaporin protein:protein complexes” (Protein Science : A Publication of the Protein Society, 2016) can be followed below.

Data set [1] concerns the molecule itself. The data set is described as follows: pull-down + SEC; YFPN-AQP0 + YFPC-CaM* co-expressed in S. cerevisiae; membranes solubilised in DDM; HisTrap HP (Ni-NTA) by the His tag on YFPC-CaM*, eluted with 250 mM imidazole; then FSEC on Superose6 Increase (20 mM Tris-HCl pH 7.5, 100 mM NaCl, 5 mM CaCl2, 1% β-OG); fluorescent peak at 15 mL on SDS-PAGE (Coomassie), immunoblot with anti-AQP0 and anti-CaM.

Data set [2] deals with the molecule itself. The data set can be described thus: SEC; isolated AQP0 alone on SEC.

B1: YFPN‐AQP0 of the recloned pair YFPN‐AQP0 + YFPC‐CaM* (hexa‐histidine tag moved away from the AQP0 moiety) (natural protein, human, UniProt P30301 1-263, looked up)
chain: MWELRSASFWRAIFAEFFATLFYVFFGLGSSLRWAPGPLHVLQVAMAFGLALATLVQSVGHISGAHVNPAVTFAFLVGSQMSLLRAFCYMAAQLLGAVAGAAVLYSVTPPAVRGNLALNTLHPAVSVGQATTVEIFLTLQFVLCIFATYDERRNGQLGSVALAVGFSLALGHLFGMYYTGAGMNPARSFAPAILTGNFTNHWVYWVGPIIGGGLGSLLYDFLLFPRLKSISERLSVLKGAKPDVSNGQPEVTGEPVELNTQAL
notes: aquaporin 0 (AQP0), human; gene codon optimized for yeast (Genscript); As m1 but without the His tag; The purified complex is read by its size (about 500 kDa) as an octameric form of the aquaporin; also called hAQP0; source: S. cerevisiae, co-expressed with YFPC-CaM*, purified as a complex (DDM-solubilised membranes, Ni-NTA, SEC); not shown: YFPN (SYFP2 amino acids 1 to 154, linker KQKVMNH), …
Turning to B1, the “stoichiometry N” value in data set [1] was 8.

B2: isolated AQP0 (expressed and purified separately) (natural protein, human, UniProt P30301 1-263, looked up)
chain: MWELRSASFWRAIFAEFFATLFYVFFGLGSSLRWAPGPLHVLQVAMAFGLALATLVQSVGHISGAHVNPAVTFAFLVGSQMSLLRAFCYMAAQLLGAVAGAAVLYSVTPPAVRGNLALNTLHPAVSVGQATTVEIFLTLQFVLCIFATYDERRNGQLGSVALAVGFSLALGHLFGMYYTGAGMNPARSFAPAILTGNFTNHWVYWVGPIIGGGLGSLLYDFLLFPRLKSISERLSVLKGAKPDVSNGQPEVTGEPVELNTQAL
notes: also called pure protein AQP0; source: expressed and purified separately
Turning to B2, the “stoichiometry N” value in data set [2] was 4.
